Experiments:
Assay in all cases: crystal structure
[1] = target: Snake Atadenovirus 1 LH3 protein (snake adenovirus 1)
[2] = target: Sorbitol dehydrogenase (BjSDH) from Bradyrhizobium japonicum (Bradyrhizobium japonicum)
[3] = target: the molecule itself

Question: How did the stoichiometry N [1] turn out when “Snake Atadenovirus 1 LH3 protein (natural protein)” was run?
Answer: 3

Question: “Sorbitol dehydrogenase (BjSDH) from Bradyrhizobium japonicum (enzyme)” was tested. Which stoichiometry N [2] did it give?
Answer: 4

B1: FliD_(78-405), flagellar cap protein from Pseudomonas aeruginosa PAO1 (domain or fragment)
chain: NEDILKASATQSAVAGTYQIQVNSLATSSKIALQAIADPANAKFNSGTLNISVGDTKLPAITVDSSNNTLAGMRDAINQAGKEAGVSATIITDNSGSRLVLSSTKTGDGKDIKVEVSDDGSGGNTSLSQLAFDPATAPKLSDGAAAGYVTKAANGEITVDGLKRSIASNSVSDVIDGVSFDVKAVTEAGKPITLTVSRDDAGVKDNVKKFVEAYNTLTKFINEQTVVTKVGEDKNPVTGALLGDASVRALVNTMRSELIASNENGSVRNLAALGITTTKDGTLEIDEKKLDKAISADFEGVASYFTGDTGLAKRLGDKMKPYTDAQGI
Question: With B1 as the molecule, how does the “stoichiometry N” value [3] read?
Answer: 6

— paper PMC5820184 (Proteins, 2017)
